Results: patent US20240182592A1 (CHIA TAI TIANQING PHARMACEUTICAL GROUP, published 2024)

Tests used:
[1] = target: T1, human BCMA protein (human, UniProt Q02223 1-54, limits assumed); assay: SPR (Biacore T200), antibody captured by anti-hIgG, human BCMA as analyte, 1:1 model
T1 construct: also called hBCMA; Antigen BCMA
T1 sequence (looked up): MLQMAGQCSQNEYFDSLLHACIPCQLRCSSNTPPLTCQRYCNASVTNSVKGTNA
Protocol: (§1) The affinity of the test antibody for human CD3e or human BCMA protein was determined by Biacore T200 (GE) as follows:
(§2) The response signals were detected in real time using Biacore software, and association and dissociation curves were obtained. The buffer used in the experiment was Biacore universal buffer (137 mM NaCl, 2.7 mM KCl, 10 mM Na₂HPO₄.12H₂O, 1.8 mM KH₂PO₄. 0.05% surfactant P-20 (w/v), pH 7.4). […] The flow rate in the flow cell was at 50 μL/min, the association was performed for 240 s, the dissociation was performed for 1400 s, the regeneration was performed using 3 M MgCl (GE) for 60 s, and the baseline was stable. Results were obtained by calculation according to the affinity and kinetics 1:1 binding mode in biacore evaluation software.

[2] = target: T2, human CD3e (Acro, Cat. No. CDE-H5223) (human, UniProt P07766 23-126); assay: SPR (Biacore T200), antibody captured by anti-hIgG, human CD3e as analyte, 1:1 model
T2 construct: also called human CD3e protein; hCD3e
Protocol: as §1, §2

[3] = target: T3, T cell surface CD3 (human, UniProt P07766 23-207); assay: flow cytometry, human CD3+ T cells
T3 construct: whole, on cells; also called CD3^+ T cells
Protocol: Human PBMC cells were sorted for CD3⁺ T cells using CD3 magnetic beads (Miltenyi, catalog No. 130-097-043): the cryopreserved PBMCs were thawed, and washed by centrifugation twice for counting. Running buffer (MACS, catalog No. 130-091-221) was added in a cell-to-buffer ratio of 10⁷:80 μL, CD3 beads were added in a cell-to-bead ratio of 10⁷:20 μL, and the mixture was mixed well and incubated at 4° C. for 15 min. The cells were washed with buffer in a cell-to-buffer ratio of 10⁷:1-2 mL. After centrifugation, the supernatant was discarded, and 500 μL of buffer was added to resuspend the cell pellet. The LS sorting column (Miltenyi, catalog No. 130-042-401) was placed on the MidiMACS Starting Kit (LS) magnetic rack (Miltenyi, catalog No. 130-091-051). After rinsing, the cell suspension was added and washed thrice. The LS sorting column was removed from the magnetic rack and placed on a clean centrifuge tube and 5 mL buffer was added to collect the sorted CD3⁺ T cells. After counting, the CD3⁺ T cells were adjusted to a cell density of 5×10⁶-10×10⁶ cells/mL using RPMI medium (Hyclone, catalog No. SH30809.01) containing 2% FBS (fetal bovine serum) and seeded in a 96-well U-bottom cell culture plate (Costar, catalog No. 3799) at 50 μL per well. The test antibodies at different concentrations were prepared using the medium described above. […] The antibodies at different concentrations were added to the 96-well cell culture plate described above at 50 μL per well, mixed well and incubated at 4° C. for 1 h. The cells were washed with pre-cooled running buffer (MACS, catalog No. 130-091-221), and the supernatant was discarded. Pre-cooled fluorescent labeled goat anti-human IgG antibodies (Jackson, catalog No. 109-116-170) were added, and the cells were resuspended at 100 μL per well, mixed well and incubated at 4° C. for 30 min. After washing, 100 μL of pre-cooled running buffer was added to resuspend the cells.

[4] = target: T4, human BCMA on cells (human, UniProt Q02223 1-184); assay: cell-based or functional assay
T4 sequence (looked up): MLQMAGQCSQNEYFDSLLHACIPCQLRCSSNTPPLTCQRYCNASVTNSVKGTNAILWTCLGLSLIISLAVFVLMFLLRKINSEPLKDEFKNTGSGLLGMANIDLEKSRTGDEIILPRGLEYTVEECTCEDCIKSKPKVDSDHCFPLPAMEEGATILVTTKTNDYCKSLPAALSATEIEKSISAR

[5] = target: T4, human BCMA on cells; assay: cell-based or functional assay; remark: listed apart in the source
[6] = target: T4, human BCMA on cells; assay: flow cytometry, NCI-H929 cells
Protocol: (§3) NCI-H929 cells (BCMA+++), MM1S cells (BCMA++), and RPMI-8226 cells (BCMA+) in the logarithmic growth phase were taken, adjusted to a cell density of 5×10⁶-10×10⁶ cells/mL using RPMI medium (Hyclon, catalog No. SH30809.01) containing 2% FBS (fetal bovine serum), respectively, and seeded in a 96-well U-bottom cell culture plate (Costar, catalog No. 3799) at 50 μL per well. The test antibodies at different concentrations were prepared using the medium described above. […] The antibodies at different concentrations were added to the 96-well cell culture plate described above at 50 μL per well, mixed well and incubated at 4° C. for 1 h. The cells were washed with pre-cooled running buffer (MACS, catalog No. 130-091-221), and the supernatant was discarded. Pre-cooled fluorescent labeled goat anti-human IgG antibodies (Jackson, catalog No. 109-116-170) were added, and the cells were resuspended at 100 μL per well, mixed well and incubated at 4° C. for 30 min. After washing, 100 μL of pre-cooled running buffer was added to resuspend the cells. The cells were mixed well and collected while flowing on an Attune™ NxT flow cytometer, and the data was analyzed using Graphpad Prism5 software. FIGS. 7-9 and Table 11 show the binding ability of the anti-BCMA/anti-CD3 multispecific antibodies to NCI-H929 cells (BCMA+++), MM1S cells (BCMA++), and RPMI-8226 cells (BCMA+).

[7] = target: T4, human BCMA on cells; assay: flow cytometry, MM1S cells
Protocol: as §3

[8] = target: T4, human BCMA on cells; assay: cell-based or functional assay; remark: listed apart in the source

T3 sequence (P07766 23-207): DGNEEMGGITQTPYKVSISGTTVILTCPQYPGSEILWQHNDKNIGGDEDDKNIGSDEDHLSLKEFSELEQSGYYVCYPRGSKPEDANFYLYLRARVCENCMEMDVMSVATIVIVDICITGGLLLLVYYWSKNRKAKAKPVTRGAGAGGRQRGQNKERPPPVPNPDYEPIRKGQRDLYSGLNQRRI
T2 sequence (P07766 23-126 limits assumed): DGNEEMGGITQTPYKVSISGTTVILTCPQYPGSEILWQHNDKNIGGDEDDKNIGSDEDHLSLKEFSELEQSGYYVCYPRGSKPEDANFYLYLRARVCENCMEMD

B1: anti-BCMA/anti-CD3 multispecific antibody BC24 (bispecific antibody, human IgG1, lambda, L234A L235A)
chain: QVQLVESGGGSVQAGGSLRLSCAASGYSSNVACMAWYRQAPGKEREWVATIVADFGTTNYAASVKGRFTISQDNAKNTVYLQMNSLKPEDSAMYYCAATQRGGIDWCDEINYWGQGTLVTVSSGGGGSGGGGSQVQLVESGGGSVQAGGSLRLSCAASGVTFNSACMGWFRQAPGKEREGVARIETGYGGTVYADSVKGRFTISRDNAKNTVYLQMNSLKPEDTAMYYCAAKRSWCTPTWWHELDYNYWGQGTQVTVSSGEPKSSDKTHTCPPCPAPEAAGGPSVFLFPPKPKDTLMISRTPEVTCVVVDVSHEDPEVKFNWYVDGVEVHNAKTKPREEQYNSTYRVVSVLTVLHQDWLNGKEYKCKVSNKALAAPIEKTISKAKGQPREPQVCTLPPSREEMTKNQVSLSCAVKGFYPSDIAVEWESNGQPENNYKTTPPVLDSDGSFFLVSKLTVDKSRWQQGNVFSCSVMHEALHNHYTQKSLSLSPGK
heavy: EVQLVESGGGLVQPGGSLRLSCAASGFTFNTYAMNWVRQAPGKGLEWVARIRSKYNNYATYYADSVKDRFTISRDDSKNTAYLQMNNLKTEDTAMYYCVRHGNFGNSYVSWFAYWGQGTLVTVSSASTKGPSVFPLAPSSKSTSGGTAALGCLVKDYFPEPVTVSWNSGALTSGVHTFPAVLQSSGLYSLSSVVTVPSSSLGTQTYICNVNHKPSNTKVDKKVEPKSCDKTHTCPPCPAPEAAGGPSVFLFPPKPKDTLMISRTPEVTCVVVDVSHEDPEVKFNWYVDGVEVHNAKTKPREEQYNSTYRVVSVLTVLHQDWLNGKEYKCKVSNKALAAPIEKTISKAKGQPREPQVYTLPPCREEMTKNQVSLWCLVKGFYPSDIAVEWESNGQPENNYKTTPPVLDSDGSFFLYSKLTVDKSRWQQGNVFSCSVMHEALHNRFTQKSLSLSPGK
light: ELVVTQEPSLTTSPGGTVTLTCRSSTGAVTTSNYANWVQQKPGQAPRGLIGGTNKRAPGTPARFSGSLLGGKAALTITGVQPEDEAEYYCALWYSNLWVFGGGTKLTVLGQPKANPTVTLFPPSSEELQANKATLVCLISDFYPGAVTVAWKADGSPVKAGVETTKPSKQSNNKYAASSYLSLTPEQWKSHRSYSCQVTHEGSTVEKTVAPTECS
notes: Trivalent: 1A10 VHH and 1A11 VHH in tandem on one Fc polypeptide, anti-CD3 Fab on the other; human IgG1 knobs-into-holes Fc
[1]
  Kd: 0.0627 nM
[2]
  Kd: 0.286 nM
[3]
  EC50: 38.3 nM
  Top(MFI): 163000 MFI
[4]
  Lysis EC50, RPMI-8226 cells with human PBMCs (E:T 10:1, 24 h, LDH release): 0.0113 nM
  Maximum lysis rate, RPMI-8226 cells with human PBMCs: 29%
[5]
  Lysis EC50, NCI-H929 cells with human PBMCs (E:T 10:1, 24 h, LDH release): 0.0218 nM
  Maximum lysis rate, NCI-H929 cells with human PBMCs: 40%
[6]
  EC50: 1.56 nM
  Top(MFI): 186000 MFI
[7]
  EC50: 0.535 nM
  Top(MFI): 107000 MFI
[8]
  Lysis EC50, MM1S cells with human PBMCs (E:T 10:1, 24 h, LDH release): 0.00937 nM
  Maximum lysis rate, MM1S cells with human PBMCs: 21%
